Laboratory results published in patent US20150353950A1, “TRANSGENIC PLANTS” (Durham University, priority 2012, published 2015).
Each block holds one molecule with its values, some of them ahead of it.

How the values were obtained:
GFP:RGA = experiment: Immunoprecipitation of GFP:RGA from pRGA::GFP:RGA seedlings sprayed with GA3; type: in vivo, Arabidopsis; settings: seedlings sprayed with GA3 (10 μM), harvested at different time points
Method: FIGS. 7A-D. RGA and GAI are SUMOylated in vivo. a, Immunoprecipitation of GFP proteins from 35S::GFP or 35S::GFP:NPR1 (NON EXPRESSER OF PR GENES) young seedlings sprayed with 1 mM Salicylic acid (+SA) or control (−SA). Numbers indicate molecular mass (kDa), arrowhead, the GFP:NPR1 or GFP proteins. Ponceau staining of the Rubisco large subunit serves as a loading control. b, in vitro deSUMOylation of plant-derived GFP:RGA by recombinant SUMO protease subunits of SENP1 and SENP2. c, immunoprecipitation of equal amount of total proteins derived from pRGA::GFP:RGA seedlings or a transgenic line (Col-0) expressing GAI:GFP (35S::GAI:GFP). 9 days old seedlings were grown in petri dishes in the absence (−) or presence (+) of PAC (0.1 μM). […]
Total proteins were extracted by homogenizing fresh Arabidopsis seedlings in the presence of ice cold extraction buffer—150 mM NaCl, 1% Igepal CA-630, 0.5% sodium deoxycholate, 0.1% SDS, 1 mM EDTA, 50 mM Tris HCl, pH 8.0 and freshly added protease inhibitor cocktail (Roche) and 10 mM N-ethylmaleimide (NEM). The homogenates were clarified by spinning 10 min at 4° C. at 13000×g and the supernatant quantified with the Bradford assay. […] Total proteins were quantified with the Bradford reagent and an equal amount of proteins was precipitated with five volumes of cold acetone. […]

His:proAtSUMO1 [1] = biological target: T1, His:proAtSUMO1 (Arabidopsis, UniProt P55852 1-100); experiment: peptide array probed with SUMO1 (FIG. 10a)
T1 construct: Probe of the far-western assay on spotted SIM peptides (10 ug/ml); also called recombinant His:proAtSUMO1; not shown: His tag
T1 sequence (P55852 whole entry): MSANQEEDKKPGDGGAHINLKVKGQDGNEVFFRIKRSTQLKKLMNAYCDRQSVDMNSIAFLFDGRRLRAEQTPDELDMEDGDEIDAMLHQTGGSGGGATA

His:proAtSUMO1 [2] = biological target: T1, His:proAtSUMO1; experiment: far-western on spotted peptides SIM A and SIM B
Method: (§1) Peptides corresponding to the putative SIMs in GID1 were purchased from Cambridge Research Biochemicals. 1 μg of each peptide was spotted on a PVDF membrane. Membranes were washed in 100% Ethanol, equilibrated in TBST (25 mM Tris HCl, pH 8.0, 150 mM NaCl, 0.05% Tween 20) and blocked in TBST-Milk 5%. Peptides were probed overnight at 4° C. with recombinant His:proAtSUMO1 (10 μg/ml), washed and subsequently probed with SUMO1 antibodies for standard chemoluminescence-based detection.

[3] = biological target: T2, SUMOylated GFP:RGA (plant-derived) (Arabidopsis, UniProt P55852 1-93, SUMO1 conjugated; lysine 65 of RGA is the critical amino acid for SUMO attachment); experiment: GST pull down of plant-derived GFP:RGA with recombinant GST:GID1a, with or without 10 µM GA3
T2 construct: the preparation is a mixture of SUMOylated and non-SUMOylated forms; also called SUMOylated RGA; SUMOylated DELLA; not shown: GFP fused N-terminally to RGA in the pRGA::GFP:RGA line
T2 sequence (chain, as listed by the source limits assumed, chain 1 of 2): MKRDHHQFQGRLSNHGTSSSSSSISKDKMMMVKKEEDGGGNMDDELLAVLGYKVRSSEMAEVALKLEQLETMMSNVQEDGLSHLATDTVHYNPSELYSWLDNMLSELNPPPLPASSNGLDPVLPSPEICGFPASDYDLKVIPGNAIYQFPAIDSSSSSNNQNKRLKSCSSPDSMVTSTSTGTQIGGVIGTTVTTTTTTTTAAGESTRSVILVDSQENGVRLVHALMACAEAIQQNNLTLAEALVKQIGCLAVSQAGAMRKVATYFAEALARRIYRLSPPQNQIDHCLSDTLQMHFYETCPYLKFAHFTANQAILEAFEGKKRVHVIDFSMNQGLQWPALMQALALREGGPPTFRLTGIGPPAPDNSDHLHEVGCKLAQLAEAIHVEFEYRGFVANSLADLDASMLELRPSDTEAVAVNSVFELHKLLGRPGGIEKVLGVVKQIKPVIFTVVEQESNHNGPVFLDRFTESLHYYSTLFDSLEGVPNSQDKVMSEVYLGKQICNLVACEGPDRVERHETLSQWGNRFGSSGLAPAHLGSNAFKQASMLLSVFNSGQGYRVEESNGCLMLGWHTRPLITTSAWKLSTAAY
T2 sequence (P55852 1-93 limits assumed, chain 2 of 2): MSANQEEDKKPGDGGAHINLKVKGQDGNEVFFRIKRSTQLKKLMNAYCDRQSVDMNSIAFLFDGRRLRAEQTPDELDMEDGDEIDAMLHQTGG
Method: GA3 was added at a final concentration of 10 μM. Proteins were pulled-down using the μMACS GST Isolation Kit, according to the manufacturers' instruction (Miltenyi biotech). […] The eluate was dialyzed against 50 mM Tris HCl, pH 7.5, 50 mM NaCl, 1 mM DTT. Plant purified GFP:RGA proteins were split into different tubes and incubated with recombinant GST:GID1a (0.1 μg) or GST proteins in 1× reaction buffer (with freshly added protease inhibitor cocktail) in the presence or absence of 10 μM GA3. GST-bound proteins were pulled-down using the μMACS GST Isolation Kit, washed four times with 1× reaction buffer and eluted according to the manufacturers' instruction.

SUMOylated GFP:RGA = biological target: T3, SUMOylated GFP:RGA (Arabidopsis thaliana, UniProt Q9SLH3); experiment: On-column deSUMOylation assay of plant-derived GFP:RGA; type: biochemical; settings: 5-10 μg recombinant protease, typically 1-2 hours at room temperature
T3 construct: expressed in transfected cells; host or cells: pRGA::GFP:RGA transgenic Arabidopsis plants (Ler background)
T3 sequence (Q9SLH3 whole entry): as the sequence (chain, as listed by the source limits assumed, chain 1 of 2) above
T3 sequence (P55852 1-93 partner limits assumed): as the sequence (P55852 1-93 limits assumed, chain 2 of 2) above
Excerpt: FIGS. 2A-G. SUMOylation is a novel DELLA modification affecting DELLA accumulation. a, Immunoprecipitation of GFP:RGA proteins. […] His:RGAK65R is not SUMOylated. […] In bold characters, the conserved lysine residues, shaded area, the non-canonical SUMOylation motif. Alignment discloses SEQ ID NOS 41, 76-77, 42, and 78-82, respectively, in order of appearance. e, SUMOylated GFP:RGA accumulation upon NaCl treatment. f, SUMOylated GFP:RGA accumulation in wild-type (OTS1 OTS2) or mutants (ots1 ots2) plants. g, accumulation of GFP:RGA at different concentrations of NaCl. Wild-type extracts (Col-0) were used as a negative control.
GFP:RGA proteins were affinity captured from total proteins extracts of pRGA::GFP:RGA transgenic plants with the μMACS GFP Isolation Kit. Magnetic beads were eluted from the columns with 50 μl of 20 mM Tris HCl, pH 7.5 and split into different tubes. Purified GFP:RGA proteins were incubated with 5-10 μg of recombinant OTS1 or OTS1C526S, or 300 ng of GST tagged human SENP1 or SENP (42) (catalytic domain) (Enzo life sciences). After incubation (typically 1-2 hours at room temperature), the beads were applied to the column, washed and bound proteins eluted with SDSPAGE loading buffer.

His:proAtSUMO1 [4] = biological target: T1, His:proAtSUMO1; experiment: far-western on spotted peptides
Method: as §1

binding result (His:proAtSUMO1 [2]): no binding
B2: SIM A peptide of GID1a (peptide)
peptide: LIESRTVVPLNTW
notes: Synthetic peptide (Cambridge Research Biochemicals), 1 ug spotted on PVDF

binding result (His:proAtSUMO1 [4]): binds
B5: SIM B peptide of GID1a (peptide)
peptide: VVPLNTWVLISN
notes: Synthetic peptide, 1 ug spotted on PVDF

Further lines, the molecule ahead of its results:

Molecule: C=C1C[C@]23C[C@@]1(O)CC[C@H]2[C@@]12C=C[C@H](O)[C@@](C)(C(=O)O1)[C@H]2[C@@H]3C(=O)O [GA, gibberellic acid]
abundance of SUMOylated and non-SUMOylated RGA after GA treatment (GFP:RGA): induced a rapid disappearance of both SUMOylated and non-SUMOylated RGA forms

B1: SIM “B” peptide of AtGID1a (peptide array of FIG. 10) (peptide)
peptide: VVPLNTWVLISNF
notes: also called AtGID1a SIM
binding result (His:proAtSUMO1 [1]): binds

B3: GST:GID1a (receptor)
chain: MAASDEVNLIESRTVVPLNTWVLISNFKVAYNILRRPDGTFNRHLAEYLDRKVTANANPVDGVFSFDVLIDRRINLLSRVYRPAYADQEQPPSILDLEKPVDGDIVPVILFFHGGSFAHSSANSAIYDTLCRRLVGLCKCVVVSVNYRRAPENPYPCAYDDGWIALNWVNSRSWLKSKKDSKVHIFLAGDSSGGNIAHNVALRAGESGIDVLGNILLNPMFGGNERTESEKSLDGKYFVTVRDRDWYWKAFLPEGEDREHPACNPFSPRGKSLEGVSFPKSLVVVAGLDLIRDWQLAYAEGLKKAGQEVKLMHLEKATVGFYLLPNNNHFHNVMDEISAFVNAEC
notes: GID1a ORF (pLCG66) recombined into pDEST15; also called recombinant GST-tagged GID1a; GST-tagged GID1a; not shown: glutathione S-transferase (GST) tag of the GATEWAY destination vector pDEST15
binding result [3]: binds

B4: OTS1: purified recombinant OTS1 SUMO protease (protein)
chain: MTKRKKEVIDVDCSEKKDFVIDWSSAMDKEDEVPELEIVNTTKPTPPPPPTFFSDDQTDSPKLLTDRDLDEQLERKKAILTLGPGLPDKGEKIRLKIADLEEEKQRRVLEGSKMEVDRSSKVVSSTSSGSDVLPQGNAVSKDTSRGNADSKDTSRQGNADSKEVSRSTFSAVFSKPKTDSQSKKAFGKELEDLGCERRKHKAGRKPVTRLSNGWRLLPDVGKAEHSAKQFDSGLKESKGNKKSKEPYGKKRPMESSTYSLIDDDDDDDDDDDNDTSGHETPREWSWEKSPSQSSRRRKKSEDTVINVDEEEAQPSTVAEQAAELPEGLQEDICYPTRDDPHFVQVCLKDLECLAPREYLTSPVMNFYMRFLQQQISSSNQISADCHFFNTYFYKKLSDAVTYKGNDKDAFFVRFRRWWKGIDLFRKAYIFIPIHEDLHWSLVIVCIPDKKDESGLTILHLDSLGLHSRKSIVENVKRFLKDEWNYLNQDDYSLDLPISEKVWKNLPRRISEAVVQVPQQKNDFDCGPFVLFFIKRFIEEAPQRLKRKDLGMFDKKWFRPDEASALRIKIRNTLIELFRVSDQTE
modifications: left off: small tags and cut ends
notes: purified recombinant OTS1 SUMO protease
deSUMOylation of SUMOylated GFP:RGA (SUMOylated GFP:RGA): dramatic reduction of the higher molecular weight, anti-SUMO1 cross-reacting bands
